# Assay: yeast display, Sf9 membrane polyspecificity reagent, FACS + sequencing; frameworks hold sequencing errors
# In short: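 A synthetic nanobody library was expressed on Saccharomyces cerevisiae BJ5465 by galactose induction for 36–48 hours. The library was stained for 1 hour at 4 °C with 10% biotinylated, detergent-solubilized Sf9 membrane reagent and enriched with streptavidin microbeads before FACS. Low and high (top ~1%) gates were set on anti-HA fluorescence for expression and streptavidin fluorescence for reagent binding, and each polyreactivity label reflects the gate of origin.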
row,Sequence,polyreactivity (PSR sort gate)
1,QVQLVESGGGLVQAGGSLRLSCAASGRTFSAYAMGWYRQAPGKERELVARITSVDSTNYADSVKGRFTISRDNAKNTVYLQMNSLKPDDTAVYYCNATFVFPFVDYDDYWGQGTQVTVSS,low polyreactivity
2,QVQLVESGGGLVQAGGSLRLSCAASGRTFSENAMGWYRQARGKERELVAAISGSGGRTYYADSVKGRFTISRDNAKNTVYLQMNSLKPEDTAVYYCAKVTRYGSTYDYWGQGTQVTVSS,high polyreactivity
3,QVQLVESGGGLVQAGGSLRLSCAASGRTFSEYAMGWYRQAPGKERELVAAITENGGSTYYADSVKGRFTISRDNAKNTVYLQMNSLKPEDTAVYYCAAETWADWYSEFYWGQGTQVTVSS,high polyreactivity
4,QVQLVESGGGLVQAGGSLRLSCAASGRTFSFYAMGLYRQAPGKERELVAAIRSDGGTTYYADSVKGRFTISRVNGKNTVYLQMNSLKPEDTAVYYCNTQSFYFVSFSSSRYLRYYWGQGTQVTVSS,low polyreactivity
5,QVQLVESGGGLVQAGGSLRLSCAASGRTFSGNAMGWYRQAPGKERELVATITRRGGSTYYADSVKGRFTISRDNAKNTVYLQMNSLKPEDNAVYYCAARRVVNGGQGYESWGQGTQVTVSS,high polyreactivity
6,QVQLVESGGGLVQAGGSLRLSCAASGRTFSGYAMGWYRQAPGKERELVAAISSGGGSTYYADSVKGRFTISRDIAKNTVYLQMNSLKPEDTAVYYCAADGYPGDYDYWGQGTQVTVSS,low polyreactivity
7,QVQLVESGGGLVQAGGSLRLSCAASGRTFSGYAMGWYRQAPGKERELVAVITYSGGSTYYADSVKGRFTISRDNAKNTVYLQMNSLKPEDTAVYYCNADYVIFYQLVDYDYWGQGTQVTVSS,low polyreactivity
8,QVQLVESGGGLVQAGGSLRLSCAASGRTFSINAMGWYRQAPGKEREMVADITKRGSTYYADSVKGRFTISRDNAKNTVYLQMNSLKREDTAVYYCNARYRGRVYDRFGYWGQGTQVTVSS,high polyreactivity
9,QVQLVESGGGLVQAGGSLRLSCAASGRTFSIYAMGWYRQAPGKERELVASITGRGGSTYYADSVKGRFTISRDNAKNTVYLQMNSLKPEDTAVYYCAADSYKPDGYRLRNDYWGQGTQVTVSS,high polyreactivity
10,QVQLVESGGGLVQAGGSLRLSCAASGRTFSIYAMGWYRQAPGKERELVASITNSDGSTYYADSVKGRFTISRDNAKNTVYLQMNSLKPEDTAVYYCNVDSGQSWSLWTYVQYDDYWGQGTQVTVSS,low polyreactivity
11,QVQLVESGGGLVQAGGSLRLSCAASGRTFSKNTMGWYRKAPGKERELVASITRRGGSTYYADSVKGRFTISRDNAKNTVYLQMKSLKPEDTAVYYCAVRWRDYRGSYRGFEYWGQGTQVTVSS,high polyreactivity
12,QVQLVESGGGLVQAGGSLRLSCAASGRTFSKYAMGWYRQAPGKERELVASITWSGGTTNYADSVKGRFTISRDNAKNTVYLQMNSLKPEDTAVYYCNADGYLAERFFIRLDEYRDYDYWGQGTQVTVSS,low polyreactivity
13,QVQLVESGGGLVQAGGSLRLSCAASGRTFSKYTMGRYRQAHGKEMEFGAAISYSGGSTYYADSVKGRFTISRDYAKKTVYLQMNSLKPEDTAVYYCAARASTYKYYYWGQGTQVTVSS,high polyreactivity
14,QVQLVESGGGLVQAGGSLRLSCAASGRTFSNYAMGWYRQAPGKERELVAAISQRGGSTYYADSVKGRFTISRDNAKITVYLQMNSLKPEDTAVYYCNALFRLRAYADMDYWGQGTQVTVSS,high polyreactivity
15,QVQLVESGGGLVQAGGSLRLSCAASGRTFSPNSMVWYRPAPGKERELVAAITRSDGRTYYADSVKGRFTISRDNAKNTVYLQMNSLKPEDTAVYYCAVDGYYPPAWYEYDYWGQGTQVTVSS,high polyreactivity
16,QVQLVESGGGLVQAGGSLRLSCAASGRTFSRNAMGRYRQAPGKERELVATITSDGSTNYADSVKGRFTISRDNAKNTVYLQMNSLKPEDTAVYYCAAGEQSSIIGAHDYWGQGTQVTVSS,low polyreactivity
17,QVQLVESGGGLVQAGGSLRLSCAASGRTFSRNAMGWYRQAPGKERELVATISSSGVRTYYADSVKGRFTISRDNAKNTVYVQMNSLKPEDTGVYYCAAALRYFSAASGYDYWGQGTQVTVTS,low polyreactivity
18,QVQLVESGGGLVQAGGSLRLSCAASGRTFSRYAMGWYRQAPGKERELVAAITSGGSTYYADSVKGRFTISRDNAKNTVYLQMNSLKPEDTAVYYCAAVWRYGYSDGGYWGLGTQVTVSS,high polyreactivity
19,QVQLVESGGGLVQAGGSLRLSCAASGRTFSRYAMGWYRQAPGKERELVATINSRAGITNYADSVKGRFTISRDNAKNTVYLQMNSLKPEDTAVYYCAAKGVIISYDTLRYDYWGQATQVTVSS,high polyreactivity
20,QVQLVESGGGLVQAGGSLRLSCAASGRTFSSNAMGWYRQAPGKERELVASISFRGGRTYYADSVKGRFTISRDNAKNTVYLQMNSLKPEDTAVYYCVSGTKRTGYGYWGQGTQVTVSS,high polyreactivity
21,QVQLVESGGGLVQAGGSLRLSCAASGRTFSSNAMGWYRQAPGKERELVATITYSGGSTYYADSVKGRFTISRDNAKNTVYLQMNSLKPEDTAVYYCAVRVSTYITKYYYWGQGTQVTVSS,low polyreactivity
22,QVQLVESGGGLVQAGGSLRLSCAASGRTFSSNAMGWYRQAPGKERELVAVITRRGGSTYYADSVKGRFTISRDNAKNTVYLQMNSLKPEDTAVYYCATDAPPQRSGRRSAGQKYYYLGQGTQVTVSS,high polyreactivity

row,Sequence,polyreactivity (PSR sort gate)
1,QVQLVESGGGLVQAGGSLRLSCAASGRTFSSNTMGWYRQAPGKERELVAAITKSGANTYYADSVKGRFTISRDNAKNTVYLQMNSLKPEDTAVYYCAAPGKVQRYYYWGQGTQVTVSS,high polyreactivity
2,QVQLVESGGGLVQAGGSLRLSCAASGRTFSSTAMGWYRPAPGKERELVATITYSGGSTYYADSVKGRFTISRDNAKNTVYLQMISLKPEDCAVYYGAVRVSTYMTKYYYWGQGTQVTVSS,low polyreactivity
3,QVQLVESGGGLVQAGGSLRLSCAASGRTFSSYTMGWYIQAPGKEMELVAAISWRGGSTYYADSVKGRFTISSDNAKNTVYLQMNSLKPEDTAVYYCAARSYLTPDYYYWGQGTQVNVSS,high polyreactivity
4,QVQLVESGGGLVQAGGSLRLSCAASGRTFSSYVMGWYRQAPGKERELVASISRRGGSTYYADSVKGRFTISRDNAKNTVYLQMNSLKPEDTAVYYCNADLRGFGRGTDQYIFDYWGQGTQVTVSS,high polyreactivity
5,QVQLVESGGGLVQAGGSLRLSCAASGRTFSTYAMGWYRQAPGKERELVAAITSSGTSTYYADSVKGRFTISRDNAKNTVYLQMNSLKPEDTAVYYCAAVTKRYLAYDYWGQGTQVTVSS,high polyreactivity
6,QVQLVESGGGLVQAGGSLRLSCAASGRTFSTYAMGWYRQAPGKERELVAAKSSGGGRTYYADSVKGRFTISRDNAKNTVYLQMNSLKPEDTAVYYCAADRYFRSRRSYEYWGQGTQVTVSS,low polyreactivity
7,QVQLVESGGGLVQAGGSLRLSCAASGRTFSVNAMGWYRQAPGKERELVAAISWDGGSTYYADSVKGRFTISRDNAKNTVYLQMNSLKPEDTAVYYCIKDLYYAYDYWGQGTQVNVSS,low polyreactivity
8,QVQLVESGGGLVQAGGSLRLSCAASGRTFSVNAMGWYRQAPGKERELVAAITSGASTNYADSVKGRFTMSRDNAKNTVYLQMNSLKPEDTAVYYCAADATYGHVPAEYDYWGQGTQVTVSS,low polyreactivity
9,QVQLVESGGGLVQAGGSLRLSCAASGRTFSVYAMGWYRQAPGKEREFVATISYSGVRTSYADSVKGRFTISRDNAKNTGYLQMNSLKPEDTAVYYCNARTYYPVYYRDGGYWGQGTQVTVSS,high polyreactivity
10,QVQLVESGGGLVQAGGSLRLSCAASGRTFSVYAMGWYRQAPGKERELVAVISYRDGTTYYADSVKGRFTISRDNAKNTVYLQMNSLKPEDTAVYYCAADFFSDFDWGQGTQVTVSS,low polyreactivity
11,QVQLVESGGGLVQAGGSLRLSCAASGRTFSVYAMGWYRQATGKEREFVAAISFSGGRTYYADSVKGRFTISRDNAKNTVYLQINSLKPEDTAVYYCAKRGSYYNPMGYWGQGTQVTVSS,high polyreactivity
12,QVQLVESGGGLVQAGGSLRLSCAASGRTFSVYTMGWYRQAPGKERELVAAISSTGRTNYADSVKGRFTISRDNAKNTVYLQMNSLKPEDTAVYYCNAGVRNSYTRQALVTAYYLYYYWGQGTQVTVSS,high polyreactivity
13,QVQLVESGGGLVQAGGSLRLSCAASGRTFSYNAMGWYRPAPGKERELVAVITYSGGSTYYADSVKGRFTISRDNAKNTVYLQMNSLKPEDTAVYYCNADGYRPYQNGYDYWGQGTQVTVSS,high polyreactivity
14,QVQLVESGGGLVQAGGSLRLSCAASGRTFSYNAMGWYRQAPGKERELVAAIDWSGGRTYYADSVKGRFTISRDNAKNTVYLQMNSLKPEDTAVYYCNKAVRSSYSAWQYGMYYWGQGTQVTVSS,high polyreactivity
15,QVQLVESGGGLVQAGGSLRLSCAASGRTFSYNAMGWYRQAPGKERELVARISSGGSTNYADSVKGRFTISRDNAKNTVYLQMNSLKPEDTAVYYCNAGSYVWEEDYCGQGTQVTVSS,high polyreactivity
16,QVQLVESGGGLVQAGGSLRLSCAASGRTFSYNAMGWYRQAPGKEWELVAAISWGGGSTYYADSVKGRFTISRDNAKNTVYLQMNSLKPEDTAVYYCAAKRLTSRQHDYWGQGTQVTVSS,high polyreactivity
17,QVQLVESGGGLVQAGGSLRLSCAASGRTFSYNVMGWYRQAPGKERELVASTYYADSVKGRFTISRDIAKNTVYLQMNSVKPEDTAVYYCNRDKPGLFFTSYNYSSSYDYWGQGTLVTVSS,low polyreactivity
18,QVQLVESGGGLVQAGGSLRLSCAASGRTFSYYAMGWYRKAPGKERELVASISGGGRTNYADSVKGRFTISRDNAKNTVYLQMNSLKPEDTAVYYCAARYLITRQYKRGYWGQGTQVTVSS,high polyreactivity
19,QVQLVESGGGLVQAGGSLRLSCAASGRTFSYYAMGWYRQAPGKERELVASIRKSGASTYYADSVKGRFTISRDNAKNTVYLQMNSLKPEDTAVYYCAARGSRKPDWGLGYWGQGTQVTVSS,high polyreactivity
20,QVQLVESGGGLVQAGGSLRLSCAASGRTFSYYAMGWYRQAPGKERELVASISYSAGRTYYADSVKGRFTISRDNAKNTVYLQMNSLKPEDTAVYYCAVRGVRRFPVRTGSYTRYGDYYWGQGTQVTVSS,high polyreactivity
21,QVQLVESGGGLVQAGGSLRLSCAASGRTFSYYAMGWYRQAPGKERELVASITSGGRTYYADSVKGRFTISRDNAKNTFYLQMNSLKPEDTAVYYCNVDNQYLDRYGRRYGYWGQGTQVTVSS,low polyreactivity

# Source: the nanobody polyreactivity screen of Harvey et al. (2022)
